A short description of this series: soluble on expression in E. coli; label from the status in PepcDB or PDB records.
As for “MRMKPYSELTREELLELKKDLSAQYHAFQGKDLKLDMSRGKPSVEQLDLSMGMMDVLNSDCDLTCEDGTDCRNYGVLDGIREAKELLGDMIEVPADNIIIYGNSSLNVMYDTISRSMTHGVMGNTPWCKLDKVKFLCPVPGYDRHFAITEYFGIEMVNVPMTEEGPDMDIVEELVSKDESIKGIWCVPKYSNPTGNSYSDQTVRRFARLKPAAADFRIYWDNAYSVHHLYDDDQDNLIEILAECKRAGNPDLAYKFSSTSKISFPGSGIAAVATSHNNLEDIKKQLRMQTIGHDKVNQLRHVRYFKNIHGMVEHMRKHAEILRPKFEAVEAILERELGGLGIGSWTSPKGGYFISFDSMDGCAKDIVAKCKKAGVVMTGAGATYPYGKDPHDSNIRIAPSYPPLQDLITATELFALCVKIVTVNKLLGATK”, the “soluble on expression in E. coli” value is recorded as “not soluble”.
In the case of “MGSDKIHHHHHHMMKHLTLWHTNDVHSHLEHWPRIFNFLKEKRTAADKENQSALFFDIGDFLDRVHPLTEGTNGLANTDLLNQLPYDVVTFGNNEGTTLAHEDLDKLYEHAVFPVVCCNFYTNKECTEQPDWVKSIVYKEIEQVKIAIIGATAPFRDYYEEMGWGIEEPISSIKKQVAGLDEDTDVVILLSHLGLPSDERIALEIPEVDVILGGHTHHLLETGKIEGNALLAAAGRWGEYIGKVDIELDENNQILTKTAMTFKTEDLPAAPNEANEIQGFFDKGRAELSEKVVAIPGKLAHNWFDDSEIAHILNEAVCEWTGAETFVMNAGIFMTDFEAGIVTDFDIHQMLPHPLNAIALTMSGEELEILIDGIYRKKAELQDIPLRGFGFRGEYFGTVLMERAGFDAENQVALFDNKPIDKTREYRIATHDTFVFAPFFPIVKQIKRKEVYTPELLRDILKWKLKKMYGQEEDK”, the “soluble on expression in E. coli” value is recorded as “not soluble”.
For “MSEQYTTGVVVTGKVTGIQDYGAFVALDAETQGLVHISEITNGYVKDIHDFLKVGDTVEVKVLSIDEEHRKMSLSLKAAKRKQGRILIPNPSENGFNTLREKLTEWIEESELTK”, the “soluble on expression in E. coli” value is given as “not soluble”.
The value for “KAQKLNEQHQLILSKLLREEDNKYCADCEAKGPRWASWNIGVFICIRCAGIHRNLGVHISRVKSVNLDQWTAEQIQCMQDMGNTKARLLYEANLPENFRRPQTDQAVEFFIRDKYEKKKYYDKNAIAI” was “soluble”.
With “MSEDILPITISLAGEKDTIRLGEDLALALKPGDCLTLIGDLGAGKSTLARAFIRAMADEPDLEVPSPTFTIIQTYTTRIPVAHLDLYRLSDVSELDELGIDEMLEDGICLIEWPDIAAEVLPPAQTITLQLTHSGEGRVAVIEAPAQQKARLDRVFAIREFLAKNGRGDATRRFLSGDASTRAYETISTDGPDLILMDWRRPMRGAIVADGKTYAEIVHLAQDARSFVAIGDYLRNSGFRAPEILAADIDQGILLLEDLGREGVLAADGTPIEERYLQSVACLATLHQTPRPALLPMRDGSTYDIPSFDRQAMKIEVSLLVEWYLPHKRGKALTDGEKQDYYAIWDGLIDALAGCETGLLLRDFHSPNILWQAQNSGIGQVGLIDFQDAMIGPTAYDLASIVQDARVTIPPELQTRLMSHYLNSRKATPAFDEAAFLKAFAIMSAQRNCKLAGIWVRLLERDKKPGYMKHMPRTFRYLADALSHPELAPLREWCVRMGMDFNDLEHHHHHH”, the “soluble on expression in E. coli” value is reported as “soluble”.
As to “MLEILYQDEWLVAVNKPSGWLVHRSWLDRDEKVVVMQTVRDQIGQHVFTAHRLDRPTSGVLLMGLSSEAGRLLAQQFEQHQIQKRYHAIVRGWLMEEAVLDYPLVEELDKIADKFAREDKGPQPAVTHYRGLATVEMPVATGRYPTTRYGLVELEPKTGRKHQLRRHLAHLRHPIIGDSKHGDLRQNRSGAEHFGLQRLMLHASQLSLTHPFTGEPLTIHAGLDDTWMQALSQFGWRGLLPENERVEFSAPSGQDGEISSLEHHHHHH”, the “soluble on expression in E. coli” value was “not soluble”.
As for “MKDLIKVQQKLIPDLIDKMYRRFYILSTISQNQPVGRRSLSEHMDMTERVLRSETDMLKKQELIRVKPTGMEITNEGTEVLAQLGEYFNVYSDDHKLASAIKDKFHIKDVHVIPGDSDSNRTVKREMGQQAGQLLEGILYEDAIVSVTGGSTMACVSESIHLLPFNVFFVPARGGLGENVVYQANTIASSMAQQAGGYYTTLYVPDNVSESTYDTLMLEPSVMHTLDKIKQANITIHGIGDALKMAHRRQSSQNVIDNLQHHQAVGEAFGYYFDAQGQIVHKVKTIGLQLEDLENKDFIFAVAGGQSKGEAIKAYLSIAPENTVLITDEAAAKVILQ”, the “soluble on expression in E. coli” value is “not soluble”.
Turning to “PKTLYDKIWDAHLAHEAEDGTCLLYIDRHLVHEVTSPQAFEGLRMAGRKVRAPEKTIAVPDHNVPTTEGREDPAQMTEESRIQVQALDKNAREFGVHYYPVDDIRQGIVHIVGPEQGWTLPGMTVVCGDSHTATHGAFGALAHGIGTSEVEHVLATQTLIQKKSKN”, the “soluble on expression in E. coli” value is “not soluble”.
With “MAYVPTLIANNVLNRAFAEKYRISPMKLQKILYFAAAEYQKNTGKSLFSERFETWQYGPVLRSVYSEFRPFSRDFITRFAKDAENQSHMINESADPALQRVLDTVWSATKGHSAVDLSRITHMENSAWDKSFQNEQPFLSSDHIAADDTYRRELGLTTA” the entry was “not soluble”; with “SLNPLDSFKSQVEANVTGLGADKDIQALSRIWSRETNRNGYTYNYSWLGRPIIQYPQDIMAMQELIWSIQPDLIIETGIAHGGSLIFSASMLELNAISGGPQDAEVLGIDIDIRQHNREAIEAHPMVKRISMIQGSSIAPEIIEQVKAKAEGKQKILVCLDSNHTHDHVLAELEAYAPLTSVGSYCVVFDTVVEDLPDEMFGDRPWGVGNNPKTAVWEYLKTHPEFEIDKSIQHKLLITVAPDGYLKRLG”, “soluble”.
Take “MASEVPQVVSLDPTSIPIEYNTPIHDIKVQVYDIKGGCNVEEGLTIFLVNNPGKENGPVKISSKVNDKQVSEFLKDENMEKFNVKLGTSKHFYMFNDNKNSVAVGYVGCGSVADLSEADMKRVVLSLVTMLHDNKLSKLTVVFEINVDKNLFRFFLETLFYEYMTDERFKSTDKNVNMEYIKHLGVYINNADTYKEEVEKARVYYFGTYYASQLIAAPSNYCNPVSLSNAAVELAQKLNLEYKILGVKELEELKMGAYLSVGKGSMYPNKFIHLTYKSKGDVKKKIALVGKGITFDSGGYNLKAAPGSMIDLMKFDMSGCAAVLGCAYCVGTLKPENVEIHFLSAVCENMVSKNSYRPGDIITASNGKTIEVGNTDAEGRLTLADALVYAEKLGVDYIVDIATLTGAMLYSLGTSYAGVFGNNEELINKILQSSKTSNEPVWWLPIINEYRATLNSKYADINQISSSVKASSIVASLFLKEFVQNTAWAHIDIAGVSWNFKARKPKGFGVRLLTEFVLNDALHHHHHH”: the “soluble on expression in E. coli” value is on record as “soluble”.
With “MGSDKIHHHHHHMLMRDVIPQVLNRGTAMLTQDLLETPPQKTFHHAIDIYLKDSNAFMNTYFARYFEWQGICRERWFHECIHDNLLAAGGVFVTKRAHQEYVEETFPFQRVDCYLNTFQVKQCSAYLLFRFCVGGKPVSLGYQQIVFADRDKRISRFPHGIIERVKEYELVLPGLAS” the entry was “not soluble”.
With “MAHHHHHHMVTFRCDCLHNEAEGALCRWKGKWHPANCTNTPVLLIGKGQPQGYFKLKLKVYAIFHGNGHRLHTLNCTDEDSSEDSLNATTCSDSDWRSITQQVPTEETVEQSAASEQGPSDTTKGSGSDDEETASSAPKSEGEEQEASGEGEETPKEDQQSPGEKRGTAGEKRGASGKKDGAGGEGLTRKEPEKGGATQGGKHTHPRGESSPEKGTVNDHQRDAAEDGTTTNGKQDADPGREEPVRGRDDTVAAGAGIVSNTGRIDRKPENKKGNNVRYGAIQNLLVAIVCFITG” the entry was “not soluble”.
As for “MRGSHHHHHHTDPALRADYRKIIKEIGRGKNHARDLDRDTARGLYAHMLNGEVPDLELGGVLIALRIKGEGEAEMLGFYEAMQNHTIKLTPPAGKPMPIVIPSYNGARKQANLTPLLAILLHKLGFPVVVHGVSEDPTRVLTETIFELMGITPTLHGGQAQAKLDEHQPVFMPVGAFCPPLEKQLAMRWRMGVRNSAHTLAKLATPFAEGEALRLSSVSHPEYIGRVAKFFSDIGGRALLMHGTEGEVYANPQRCPQINLIDREGMRVLYEKQDTAGSELLPQAKDPETTAQWIERCLAGSEPIPESLKIQMACCLVATGEAATISDGLARVNQAFGLCGR”, the “soluble on expression in E. coli” value is reported as “soluble”.
For the sequence “MTRQHSTQPDPKLDLVLERTIDVPPALVWQAWTQPEHIKHWLTPAPWQTVRCDVDLRPGGRFRFVMRSPEGEEHTHDCCYLEIVEGSRLVWTNALLPGFRPAGGGGDVPAFTAVIRIEPHDQGTRYTATAMHGTQAGCRQHSDMGFHDGWGAALDQLVAHARNMQQASLEHHHHHH”, the “soluble on expression in E. coli” value is recorded as “soluble”.
With “EERLKMSTTTSTQDSGLLKVLLPPFEKKNNVKVDVIAVGTGQALKLGEAGDVDVVFVHARKLEDKFVADGFGVNRKDVMYNDFVIVGPKNDPAGIAKAKTAAEALKLLATKGATFISRGDKSGTHTKELDLWKSAGVDPKGNWYVEAGQGMGPVITMATERRAYTLTDRGTYNAFKGAKTDLVILFQGEKGLFNPYGIMAVNPKKFPHVKYDLAMKLIDYVTGPEGLKIISDYKAHG” the entry was “not soluble”; with “KERERLEEKLEDANERIAELVKLEERQRIARDLHDTLGQKLSLIGLKSDLARKLIYKDPEQAARELKSVQQTARTSLNEVRKIVSSMKGIRLKDELINIKQILEAADIMFIYEEEKWPENISLLNENILSMCLKEAVTNVVKHSQAKTCRVDIQQLWKEVVITVSDDGTFKGEENSFSKGHGLLGMRERLEFANGSLHIDTENGTKLTMAIPNNSK”, “not soluble”; with “MSLRLADFGFTDGINEIIAITENEDGSWNAAPIGIIVEDSSSDTAKAKLYRNRTRANLERSGVLFANVTDDALVFAVSSFGNLNDDWYASPNPPIIKGAMAWCRFEAEMRSGVAHLKLTDGEIIEKRVRAINRGLSAVIEALVHATRYVAIKSDERRKELLERIHYYREIVQKCGSEREKRAFEIIMEKIGEGHHHHHH”, “soluble”.
“MAHHHHHHMATDLDSFSTYIDHLILLLAARFHAPLEVSVEELLPSSMNLSAEAQCPWELVACSVQQALRTPQTAQERLLMRHLDVHHFSASVCRERARYMQWKLQECRRRRGDKQQLVQSPAVPSAARANTSSTVAASATAAGQPCDVACTSLHNDVCSLYKLVLQSLPSTLGGTESDDDEEDAQAPTTSVQSLASASEPSSFERVHEVFMRTPAEQERDELVARARDEFLSQVQALQSVYYEKYHRWMDVPASVLDPPPASSKQPASTDGAAAALESAAPQRGSESERAALLEALGAAAAPPPRHRKQANHASSSGAADWTEKPHTLASMLHQVQLRRPLRPSAVSDDVLESLYRARAETEEAPKNLCVASGLRSCPPAASTSATPSFAGGCADTITAEAVAVAPSSSQPSSSVAAVRKDTVPPASRRGRWQIVEYDDDDDGEG”: the “soluble on expression in E. coli” value is listed as “not soluble”.
The value for “MAFDKKLLDIVACPVCKGKLEYDKVAQQLICKADKLAYPITDGIPVLLENRALPLTESV” was “not soluble”.
With “DTTERKRREKRLEETSSRLEALFENSPDMIDVLDADGTICEVNQRFCAELGYDESEVLGRSIWEFDLMFDAEDVQTQLSGFSVDERRKFEGLYERRDGSTMSVEVHLLRFNLEGEDRFLAISRD” the entry was “soluble”; with “MSLKAIFWDMDGTMVDSEPQWGIATYELSEAMGRRLTPELRELTVGSSLPRTMRLCAEHAGITLSDADYERYRAGMFARVHELFDESLVPNPGVTELLTELKALEIPMLVTTNTERDLATRSVAAVGNEFFIGSIAGDEVPTAKPAPDMYLEAARRVGFDPSECLVFEDSYNGMLGAVTAGCRVIGLHPEEVQAPEGVVPLRSLHGKNSFEGVTAEMVTAWYHQIEPAGVAKEGHHHHHH”, “soluble”.

For the origin of these results see the DeepSol protein solubility set.
